From patent US20190032056, “STEM-LOOP COMPOSITIONS AND METHODS FOR INHIBITING FACTOR D” (Vitrisa Therapeutics, Inc., published 2019) come the findings set out here.

In series [1] the target is T1, complement Factor D (fD) in C1q-depleted human serum (Homo sapiens, UniProt P00746 SEQ:1-228). Briefly: inhibition; hemolysis, sd 0.8. To be noted: protein: extract; tags: endogenous fD, about 9.6 nM in 10% serum; hairpin. The procedure:
(§1) In V-bottom 96-well plates the following reagents were added to a final volume of 250 μL: appropriate volume of 1× Veronal buffer with 0.1% gelatin, 100 μL aptamer, 30 μL of C1q-depleted human serum and 20 μl RBCs. This mixture was incubated for 25 minutes at room temperature, then the reaction was stopped by the addition of 5 μL of 500 mM EDTA. The plate was centrifuged for 5 minutes at 500×g at room temperature, then 100 μL of supernatant was removed and the extent of RBC lysis was determined by measuring absorbance at 405 nm.
(§2) The potency of the PEG-aptamers P01, P04, P06, P07 and P08 compared to their non-pegylated counterparts was determined in the alternative complement-dependent hemolysis assay as described in Example 2.

Series [2] addresses T2, complement Factor D (fD) (Homo sapiens, UniProt P00746 SEQ:1-228). Briefly: TR-FRET, 25 C. To be noted: tags: His-tagged recombinant, bead-immobilized via His capture beads (flow) or anti-His Eu (TR-FRET); hairpin. The procedure: (§3) The binding affinity of aptamers for fD was determined in solution using a homogenous time-resolved fluorescence resonance energy transfer (TR-FRET) assay (Table 21). In brief, 2.5 nM recombinant human Factor D with a hexahistidine tag (SEQ ID NO:324) (His), 2.5 nM anti-His Europium, and varied concentrations of Dylight® 650-labeled aptamer was added to half-well black 96-well plates in TR-FRET buffer (50 mM MOPS, pH 7.4, 125 mM NaCl, 5 mM KCl, 0.1 mg/mL BSA, 50 μM CHAPS, 1 mM CaCl₂ and 1 mM MgCl₂). After 1 hour incubation at 25° C., binding activity was assessed using a BioTek® Cytation™ 5 plate reader. Affinity binding constants were calculated as the concentration at which 50% of aptamer is bound using a single site binding model, with values ranging from 0.66 nM to 2.5 nM (Table 21).
On the technique in general: In TR-FRET formats the signal depends on donor and acceptor labels being close together.

Series [3] concerns the target T2, complement Factor D (fD). Briefly: SPR. To be noted: tags: amine-coupled to dextran chip for SPR; free in esterase assay; hairpin. As for the experimental part: (§4) The binding affinity of aptamers for fD was determined by surface plasmon resonance (SPR) on a Reichert4 SPR System, where either aptamer or fD was immobilized as ligand on a solid surface and the interactant analyte was flowed in solution over the immobilized ligand (Table 20).

Series [4] has as its target T1, complement Factor D (fD) in …. Briefly: inhibition; hemolysis, sd 0.9. To be noted: protein: extract; tags: endogenous fD, about 9.6 nM in 10% serum; hairpin. As for the experimental part:
as §1, §2

The target is the same in series [5]. Briefly: inhibition; hemolysis, sd 0.1. To be noted: protein: extract; tags: endogenous fD, about 9.6 nM in 10% serum; hairpin. As for the experimental part:
as §1, §2

For series [6] the target is unchanged. Briefly: inhibition; hemolysis; Table 17 lists about 10 nM. Particulars: protein: extract; tags: endogenous fD, about 9.6 nM in 10% serum; hairpin. The procedure: as §1
For series [7] the target is unchanged. Briefly: inhibition; hemolysis, sd 0.6. To be noted: protein: extract; tags: endogenous fD, about 9.6 nM in 10% serum; hairpin. The procedure: as §1, §2
The target of series [8] is T2, complement Factor D (fD). Briefly: flow; bead-based direct binding. To be noted: tags: His-tagged recombinant, bead-immobilized via His capture beads (flow) or anti-His Eu (TR-FRET); hairpin.
Series [9] has as its target T2, complement Factor D (fD). Briefly: TR-FRET, 50 mM MOPS pH 7.4, 125 mM NaCl, 1 mM Ca and Mg, 25 C. Particulars: tags: His-tagged recombinant, bead-immobilized via His capture beads (flow) or anti-His Eu (TR-FRET); hairpin. The procedure:
as §3

Series [10] concerns the target T2, complement Factor D (fD). Briefly: SPR; fD immobilized. Particulars: tags: amine-coupled to dextran chip for SPR; free in esterase assay; hairpin. The procedure:
as §4
For orientation: In SPR one partner is held on a chip, and binding of the other changes the refractive index at the surface.

For series [11], the target named is T1, complement Factor D (fD) in …. Briefly: inhibition; hemolysis, sd 1.4. Particulars: protein: extract; tags: endogenous fD, about 9.6 nM in 10% serum; hairpin. As for the experimental part:
as §1, §2

Series [12] has the same target. Briefly: inhibition; hemolysis, sd 4.4. To be noted: protein: extract; tags: endogenous fD, about 9.6 nM in 10% serum; hairpin. The procedure:
as §1, §2

Series [13] concerns the target T2, complement Factor D (fD). Briefly: flow; bead-based direct binding, 37 C. Particulars: tags: His-tagged recombinant, bead-immobilized via His capture beads (flow) or anti-His Eu (TR-FRET); hairpin.
Series [14] has as its target T1, complement Factor D (fD) in …. Briefly: inhibition; hemolysis, sd 0.5. Particulars: protein: extract; tags: endogenous fD, about 9.6 nM in 10% serum; hairpin. The procedure:
as §1, §2

Series [15] shares this target. Briefly: inhibition; hemolysis, sd 0.4. Particulars: protein: extract; tags: endogenous fD, about 9.6 nM in 10% serum; hairpin. As for the experimental part:
as §1, §2

The target is the same in series [16]. Briefly: inhibition; hemolysis, sd 1.5. Particulars: protein: extract; tags: endogenous fD, about 9.6 nM in 10% serum; hairpin. As for the experimental part:
as §1, §2

T2 sequence (P00746 26-253): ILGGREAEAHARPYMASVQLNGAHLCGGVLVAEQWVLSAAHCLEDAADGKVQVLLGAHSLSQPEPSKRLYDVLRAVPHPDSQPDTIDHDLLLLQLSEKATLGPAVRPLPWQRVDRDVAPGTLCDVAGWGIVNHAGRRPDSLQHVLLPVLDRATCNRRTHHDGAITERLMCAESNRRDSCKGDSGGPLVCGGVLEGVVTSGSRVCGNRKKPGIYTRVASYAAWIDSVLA
T1 sequence (P00746 26-253): as above

As usually defined, the IC50 is the concentration that gives 50% inhibition. Usually Kd stands for the equilibrium constant for the complex coming apart. CCGACUUGCCAGUAUUGGCGAUGGCUGGAAGUUUGUCGG (ssRNA, 2'-F G except 2'-OMe G in stem 1; 2'-OMe A,C,U; 5' C6NH2; 3' idT) [Aptamer 76] showed an IC50 in series [1] of 4.2 nM. Also, the Kd was determined as 0.8 nM with complement Factor D (fD) [2] and 1.6 nM with complement Factor D (fD) [3].

For the molecule CCGACUUGCCAGUAUUGGCGAUGGCUGGAAGUUUGUCGG (ssRNA, as Aptamer 76; 5' 40 kDa branched PEG via C6NH2; 3' idT) [P06 (PEGylated Aptamer 76)], it took 4.1 nM to reach half-maximal inhibition in series [4] (IC50).

CGACUUGCCAGUAUUGGCGAUGGCUGGAAGUUUGUCG (ssRNA, 2'-F G except 2'-OMe G in stem 1; 2'-OMe A,C,U; 5' C6NH2; 3' idT) [Aptamer 102] came in with an IC50 in series [5] of 6.3 nM. The Kd was determined as 1.6 nM with complement Factor D (fD) [2] and 2.5 nM with complement Factor D (fD) [3].

In series [6], CGACUUGCCAGUAUUGGCGAUGGCUGGAAGUUUGUCG (ssRNA, 2'-F G; 2'-OMe A,C,U; 5' C6NH2; 3' idT) [Aptamer 53] showed an IC50 of less than 10 nM.

For the molecule CGACUUGCCAGUAUUGGCGAUGGCUGGAAGUUUGUCG (ssRNA, as Aptamer 102; 5' 40 kDa branched PEG via C6NH2; 3' idT) [P07 (PEGylated Aptamer 102)], half-maximal inhibition in [7] (IC50) required 4.4 nM. In other words, the single-digit nanomolar range. Consider CCGCCUUGCCAGUAUUGGCUUAGGCUGGAAGUUUGGCGG (ssRNA, 2'-F G except 2'-OMe G at 3,35,36,38,39; 2'-OMe A,C,U; 5' C6NH2; 3' idT) [Aptamer 74], for which the Kd with complement Factor D (fD) [8] turned out to be 2.7 nM; with complement Factor D (fD) [9], 2.5 nM; in the series with complement Factor D (fD) [10], 3.7 nM. This molecule registered an IC50 in series [11] of 7 nM. As for CCGCCUUGCCAGUAUUGGCUUAGGCUGGAAGUUUGGCGG (ssRNA, 2'-F G; 2'-OMe A,C,U; 5' C6NH2; 3' idT) [Aptamer 15], the IC50 in series [12] is 9.4 nM. In the series with complement Factor D (fD) [13], the dissociation constant (Kd) came out at 8.37 nM.

B1: P04 (PEGylated Aptamer 74) (ssRNA)
RNA: CCGCCUUGCCAGUAUUGGCUUAGGCUGGAAGUUUGGCGG
modifications: as Aptamer 74 (2'-OMe G at 3,35,36,38,39; other G 2'-F; 2'-OMe A,C,U); 5' 40 kDa branched PEG via C6NH2; 3' idT
In turn, B1 gave an IC50 in [1] of 3.2 nM. With CCGACUUGCCAGUAUUGGCUUAGGCUGGAAGUUUGUCGG (ssRNA, as Aptamer 106; 5' 40 kDa branched PEG via C6NH2; 3' idT) [P08 (PEGylated Aptamer 106)], the IC50 in [14] came to 4.1 nM. For CCGACUUGCCAGUAUUGGCUUAGGCUGGAAGUUUGUCGG (ssRNA, 2'-F G except 2'-OMe G in stem 1; 2'-OMe A,C,U; 5' C6NH2; 3' idT) [Aptamer 106], the Kd stood at 0.66 nM with complement Factor D (fD) [2] and 1.7 nM with complement Factor D (fD) [3]. In series [15], this molecule returned an IC50 of 5.2 nM. In the case of CCGCCUUGCCAGUAUUGGCUUAGGCUGGAAGUUUGGCGG (ssRNA, 2'-F G; 2'-OMe A,C,U; 5' 40 kDa branched PEG via C6NH2; 3' idT) [P01 (PEGylated Aptamer 15)], the concentration for half-maximal inhibition (IC50) in [16] came out at 6.1 nM. This lies in the single-digit nanomolar range.
